# Experiment: yeast display, Sf9 membrane polyspecificity reagent, FACS + sequencing; frameworks hold sequencing errors
# Summary of the method: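 Nanobodies from a synthetic yeast display library (Saccharomyces cerevisiae BJ5465), induced 36–48 hours with galactose, were stained 1 hour at 4 °C with 10% biotinylated, detergent-solubilized Sf9 membrane reagent, enriched on streptavidin microbeads, then FACS-sorted. Anti-HA (expression) and streptavidin (reagent binding) fluorescence set low and high (top ~1%) gates. Polyreactivity labels come from the gate of origin. Genes were colony-PCR amplified, MiSeq 2 × 250 sequenced and filtered by CDR length.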
row,Sequence,polyreactivity (PSR sort gate)
1,QVQLVESGGGLVQAGGSLRLSCAASGRTFRWYAMGWYRQAPGKERELVAAIRSGGRTYYADSVKGRFTISRDNAKNTVYLQMNSLKPEDTAVYYCAALAVTYRYDYWGQGTQVTVSS,high polyreactivity
2,QVQLVESGGGLVQAGGSLRLSCAASGRTFRWYAMGWYRQAPGKERELVAAITSDGRTYYADSVKGRFTISRDNAKNTVYLQMNSLNPEDTAVYYCNAACRYAFPFGYNYWGQGTQVTVSS,high polyreactivity
3,QVQLVESGGGLVQAGGSLRLSCAASGRTFRWYTMGWYRQAPGKEREFVAAITWSGSSTNYADSVKGRFTISRDNAKNTVYLQMNSLKPEDTAVYYCAAENRRRRDDYWGQGTQVTVSS,high polyreactivity
4,QVQLVESGGGLVQAGGSLRLSCAASGRTFRYNAMGWYRQAPGKERELVAAINWNGGSTYYADSVKGRFTISRDNAKNTGYLQMHSLKPEDTAVYYCNADFYHRYDWGQGTQVTGSS,high polyreactivity
5,QVQLVESGGGLVQAGGSLRLSCAASGRTFRYNAMGWYRQAPGKERELVAAISGRGSSTYYADSVKGRFTISRDNAKNTVYLQMNSLKPEDTAVYYCAADRFRLYVGGWWYDYWGQGTQVTVSS,high polyreactivity
6,QVQLVESGGGLVQAGGSLRLSCAASGRTFRYNAMGWYRQAPGKERELVAAISGRGSSTYYSDSVKGRFTISRDNAKNTVYLQMNSLTPEDTAVYYCAALPASVRRPAWHDYWGQGTQVTVSS,high polyreactivity
7,QVQLVESGGGLVQAGGSLRLSCAASGRTFRYNAMGWYRQAPGKERELVADITFSGGNTYYADSVKGRFTISRDNAKNTVYLQMNSLKPEDTAVYYCAKRRYYTGGMDYWGQGTQVTVSS,low polyreactivity
8,QVQLVESGGGLVQAGGSLRLSCAASGRTFRYNAMGWYRQAPGKERELVAGITWRGGRTYYADSVKGRFTISRDNAKNTVYLQMNSLKPEDTAVYYCNTAGYYWLHYTMDYWGQGTQVTVSS,high polyreactivity
9,QVQLVESGGGLVQAGGSLRLSCAASGRTFRYNAMGWYRQAPGKERELVASIRYSSASTYYADSVKGRFTISRDNAKNTVYLQMNSLKPEDTAVYYCAASWYPVIVGYDYWGQGTQVTVSS,high polyreactivity
10,QVQLVESGGGLVQAGGSLRLSCAASGRTFRYNAMGWYRQAPGKERELVATISSSGGSTSYADSVKGRFTISRDNAKNTVYLQMNSLKREDTAVYYCNKRRLVAPGNGMDSWGQGTQVTVSS,low polyreactivity
11,QVQLVESGGGLVQAGGSLRLSCAASGRTFRYNTMGWYRQAPGKERELVAITYRGGSTYADSVKGRFTISRDNAKNTVYLQMNSLKPEDTAVYYCAKVVNWCRGYGGTDHYYWGQGTQVTVSS,high polyreactivity
12,QVQLVESGGGLVQAGGSLRLSCAASGRTFRYNVMGWYRQAPGKERELVAAITYSGGRTYYADSVKGRFTISRDNVKNTVYLQMNSLKPEDTAVYYCAALSAPGYGRYNYWGQGTQVTVSS,high polyreactivity
13,QVQLVESGGGLVQAGGSLRLSCAASGRTFRYYAKGWYRPAPGTERELVADISSTGRTYYADSVKGRFTISRDNAKNTVYLQMNSLKPEDTAVYYCNADYFFEFDYWGQGTQVTVSS,low polyreactivity
14,QVQLVESGGGLVQAGGSLRLSCAASGRTFRYYAMAWYRQAPGKERELVAAIRSGGITNYADSVKGRFTISLDNAKYTVYLQMNRLKPEDTAVYYCAQAIRGHYWGQGTQVTVSS,high polyreactivity
15,QVQLVESGGGLVQAGGSLRLSCAASGRTFRYYAMGWYREAPGKERELVAAISSSGDRTYYADSVKGRFTISRDNAKNTVYVQMNSLKPEDTAVYYCAKDSYRRYWGQGTQVTVSS,high polyreactivity
16,QVQLVESGGGLVQAGGSLRLSCAASGRTFRYYAMGWYRKAPGKERELVATISKSGGSTYYADSVKGRFTISRDNAKNTVYLQMNSLKPEDTAVYYCAAVGPYRWYDYWGQGTQVTVSS,high polyreactivity
17,QVQLVESGGGLVQAGGSLRLSCAASGRTFRYYAMGWYRPAPGKERELVAAITISSGSTYYADSVKGRFTISRDNAKNTVYLQMNSLKPEDTAVYYCAATRRYHFDYWGQGTQVTVSS,high polyreactivity
18,QVQLVESGGGLVQAGGSLRLSCAASGRTFRYYAMGWYRQAPGKEREFVAAITSRSSRTYYADSVKGRFTISRDTAKNTVYLQMNSLKPEDTAVYYCARGSELGYYAWVYYWGQGTQVTVSS,high polyreactivity
19,QVQLVESGGGLVQAGGSLRLSCAASGRTFRYYAMGWYRQAPGKERELVAAISSSGDRTYYADSVKGRFTISRDNAKNTVYLQMNSLKPEDTAVYYCAADRGARGDYWGQGTQVTVSS,high polyreactivity
20,QVQLVESGGGLVQAGGSLRLSCAASGRTFRYYAMGWYRQAPGKERELVAAISYSGGSTYYADSVKGRFTISRDNAKNTVYLQMNSLKPEDTAVYYCAAGPWHYKYSLRGWGYYWGQGTQVTVSS,high polyreactivity
21,QVQLVESGGGLVQAGGSLRLSCAASGRTFRYYAMGWYRQAPGKERELVAAITGSGGSTYYADSVKGRFTISRDNAKNTVYLQMNSLKPEDTAVYYCATRWALRWRGGYWGQGTQVTVSS,high polyreactivity
22,QVQLVESGGGLVQAGGSLRLSCAASGRTFRYYAMGWYRQAPGKERELVAAITSGGSTYYADSVKGRFTISRDNAKNTVYLQMNSLKPEDTAVYYDYWGQGTQVTVSS,low polyreactivity

row,Sequence,polyreactivity (PSR sort gate)
1,QVQLVESGGGLVQAGGSLRLSCAASGRTFRYYDMGWYRQSPGKERELVARISISGAGTYYADSVKVRFTISRDNAKNNVYLQMNSLKPEDTAVYYCAADLFWWQKTNSGGDYWGQGTQVTVSS,low polyreactivity
2,QVQLVESGGGLVQAGGSLRLSCAASGRTFRYYTMGWYRPAPGKEREFVSSISWNGGSTYYADSVKGRFTISRDNAKNTVYLQIKSLKPEDTAVYYCSADDPYRVYRGPYGYWGQCTQVTVSS,high polyreactivity
3,QVQLVESGGGLVQAGGSLRLSCAASGRTFRYYTMGWYRQAPGKEREFVAAISSTGGTYYADSVKGRFTISRDNAKNTVYLQMNCLIPEDTAVYYCAATFIQVVVNVQLYDYDYWGQGTQVTVSS,low polyreactivity
4,QVQLVESGGGLVQAGGSLRLSCAASGRTFRYYTMGWYRQAPGKEREFVAAISSTGGTYYADSVKGRFTISRDNAKNTVYLQMNSLKPEDTAVFYGAATFIQVVVNGQLYDYDYWGQGTQVTVSS,low polyreactivity
5,QVQLVESGGGLVQAGGSLRLSCAASGRTFRYYTMGWYRQAPGKERELVAAINDSGDITYYADSVKGRFTISRDNAKNTVSLQMNSLKPEDTAVYYCAASAAYYGFYKSVTYDYWGQGTQVTVSS,low polyreactivity
6,QVQLVESGGGLVQAGGSLRLSCAASGRTFRYYTMGWYRQAPGKERELVAAISRGGRTYYADSVKGRFTISRDNAKNTVYLQMNSLKPEDTAVYYCAAQLFREYYYWGQGTQVTVSS,high polyreactivity
7,QVQLVESGGGLVQAGGSLRLSCAASGRTFSANAMGWYRQAPGKERELVAGITSRGGGTYYADSVKGRFTISRDNAKNTVYLQMNSLKPEDTAVYYCAAPYNGGGVHSYWEYDYWGQGTQVTVSS,high polyreactivity
8,QVQLVESGGGLVQAGGSLRLSCAASGRTFSAYAMVWYRQAPGKERELVAAISRRGGSTYYADSVKGRFTISRDNAKNTVYLQMKSLKPEDTAVYYCAADVYKQYGYYFWGQGTQVTVSS,high polyreactivity
9,QVQLVESGGGLVQAGGSLRLSCAASGRTFSDYTMGWYRQAPGKERELFAAISGSVVNTYYADSVKGRFTISRDNAKNTVYLQMNSLKPEDTAVYYCAKDRIFYHYALYRWRVESYYWGQGTQVTVSS,low polyreactivity
10,QVQLVESGGGLVQAGGSLRLSCAASGRTFSEYAMGWYRQAPGKERELVAAITENGGSTYYADSVKGRFTISRDIAKNTVYLQMNSLKPEDTAVYYCAAETWADWYSEFYWGQGTLVTVSS,high polyreactivity
11,QVQLVESGGGLVQAGGSLRLSCAASGRTFSFNGMGWYRQAPGKERELVAAISRRGTSTYYADSVKGRFTISRDNAKNTVYLQMNSLKPEDTAVYYCAARSTYTRREYDYWGQGTQVTVSS,high polyreactivity
12,QVQLVESGGGLVQAGGSLRLSCAASGRTFSFYAMGWYRQAPGKERELVAAISRGGGSTYYADSVKGRFTISRDNAKNTVYLQMNSLKPEDTAVYYCAAPFLYRRGYDYWGQGTQVTVSS,high polyreactivity
13,QVQLVESGGGLVQAGGSLRLSCAASGRTFSFYAMGWYRQAPGKERELVAGIDWDDGSTSYADSVKGRFTISRDNAKNTVYLQMNSLKPEDTEVYYCAADIGYDVYNDYDYWGQGTQVTVSS,low polyreactivity
14,QVQLVESGGGLVQAGGSLRLSCAASGRTFSGNALGWSTHAPGKERELVAAITSSGGSTYYADSVKGRFTISRENAKNTVYLQMNSLKPEDTAVYYCNTDPQGRTVVYGGDDYWGQGTQVTVSS,low polyreactivity
15,QVQLVESGGGLVQAGGSLRLSCAASGRTFSGYAMGWYRPAPGKERELVAAITSGGNTYYADSVKGRFTISRDNAKNTVYFQMNILKPEDTAVYYCATVYADESGIEGYSWGQGTQVTVSS,low polyreactivity
16,QVQLVESGGGLVQAGGSLRLSCAASGRTFSGYAMGWYRQAPGKERELVAAIDRGDGTNYADSVKGRFTISRDNAKNTVYLQMNSLKPEDTAVYYCAADDYWTPFGYWGQGTQVTVSS,low polyreactivity
17,QVQLVESGGGLVQAGGSLRLSCAASGRTFSGYAMGWYRQAPGKERELVAAITRRGGTTYYADSVKGRFTISRDNAKNTVYLQMNSLKPEDTAVYYCAAAKPRVISQNIIYDYWGQGTQVTVSS,high polyreactivity
18,QVQLVESGGGLVQAGGSLRLSCAASGRTFSGYAMGWYRQAPGKERELVATITWSSGSTYYADSVKGRFTISRDNAKNTVYLQMNSLKPEDTAVYYCNADQGSALRWSYDYWGQGTQVTVSS,low polyreactivity
19,QVQLVESGGGLVQAGGSLRLSCAASGRTFSGYVMGWYRQAPAKERELVAAIARNGGSRYYADSVKGRFTISRDKAKNTVYLQMNSLTPEDTAVYYCAADASCWRRHYYWGQGTQVTVSS,high polyreactivity
20,QVQLVESGGGLVQAGGSLRLSCAASGRTFSHNAMGWYRQAPGKERELVATISWNGGRTYYADSVKGRFTISRDNAKNTVYLQMNSLKPEDTAVYYCADDRIWVLYRTYFSKYGYWGQGTQVTVSS,high polyreactivity
21,QVQLVESGGGLVQAGGSLRLSCAASGRTFSHYAMGWYRQAPGKVRELVADISWNGGRTYYADSVKGRFTISRDNAKNTVYLQMNSLKPEDTAVYYCAKVRYWAWSYEYWGQGTQVTVSS,high polyreactivity

# Reference: the nanobody polyreactivity screen of Harvey et al. (2022)
